Measurements from publication PMC8248824 (Acta Crystallographica. Section F, Structural Biology …, 2021).

Target: T1, biotinylated HER3 domain 4 with N-terminal AviTag and His6 tag (Homo sapiens, biotin (in vitro biotinylation of the AviTag))
T1 construct: also called biotinylated HER3d4; HER3d4; source: Sf9 (baculovirus), secreted, purified (IMAC, in vitro biotinylation, Superdex 75 SEC); not shown: AviTag, N-terminal, kept
T1 chain: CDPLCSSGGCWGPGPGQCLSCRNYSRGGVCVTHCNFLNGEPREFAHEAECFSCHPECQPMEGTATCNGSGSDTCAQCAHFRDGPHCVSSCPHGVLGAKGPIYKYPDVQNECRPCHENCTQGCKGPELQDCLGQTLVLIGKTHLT
Assay: SPR; ProteOn XPR36, biotinylated HER3d4 on a NeutrAvidin NLC chip; monomeric DARPins injected at 2.5, 7.5, 22, 67 and 200 nM, 60 ul/min; PBS with 0.005% Tween-20; kinetic titration model
Conditions: both partners purified

Row | Binder | binding result
1 | DARPin D5 from the pQiq_FLAG expression vector (N-terminal His6 tag, C-terminal FLAG tag) (designed binder, DARPin D5 itself, as printed within the crystallisation construct (from Asp13); source: E. coli XL1 Blue, purified (HisPur Cobalt Spin Plates)) DLGKKLLEAARAGQDDEVRILMANGADVNAFDHNGSTPLHLAAAIGHLEIVEVLLKYGADVNAEDNWGNTPLHQAAWVGHLEIVEVLLKNGADVNAQDKFGKTAFDISIDNGNEDLAEILQKLN | binds

target: biotinylated HER3 domain 4 with N-terminal AviTag and His6 tag (Homo sapiens); assay: as above; conditions: not given

Row | Binder | Kd [nM]
2 | DARPin D3 (designed binder, N2C DARPin selected by ribosome display; source: E. coli XL1 Blue, purified (HisPur Cobalt Spin Plates)) GSDLGKKLLEAARAGQDDEVRILMANGADVNAFDHSGSTPLHLAAAIGHLEIVEVLLKYGADVNAEDNWGNTPLHQAAWVGHREIVEVLLKYGADVNAQDKFGKTAFDISIDNGNEDLAEILQKLN | 8.1
3 | DARPin D6 (designed binder, N3C DARPin selected by ribosome display; source: E. coli XL1 Blue, purified (HisPur Cobalt Spin Plates)) GSDLGKKLLEAARAGQDDEVRILMANGADVNAQDVSGQTPLHLAAIWGHLEIVEVLLKTGADVNAWDHWGNTPLHLAAWQGHLEIVEVLLKAGTDVNAKDSEGFTPLHLAAWWGHLEIVEVLLKHGADVNAQDKFGKTPFDLAIDNGNEDIAEVLQKAAKLN | 4.5

Target: T2, HER3 extracellular domain 4, biotinylated (N-terminal AviTag and His6 tag) (human, biotin (in vitro biotinylation, AviTag))
T2 construct: HER3 (ErbB3) extracellular domain 4, human, residues 500-643 of UniProt entry P21860; also called HER3d4; HER3 domain 4; source: Sf9 insect cells (baculovirus), secreted, purified (IMAC, Superdex 75), biotinylated in vitro; not shown: AviTag, N-terminal, kept
T2 chain: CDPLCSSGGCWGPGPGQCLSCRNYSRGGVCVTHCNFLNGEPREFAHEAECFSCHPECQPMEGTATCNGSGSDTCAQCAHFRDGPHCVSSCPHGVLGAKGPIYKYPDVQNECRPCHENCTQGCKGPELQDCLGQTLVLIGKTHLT
Assay: SPR; ProteOn XPR36, NeutrAvidin NLC chip; biotinylated HER3d4 immobilised; monomeric DARPins injected at 2.5, 7.5, 22, 67 and 200 nM (duplicates), 60 µl/min, 5 min association, 5 min dissociation; PBS with 0.005% Tween-20; kinetic titration model
Conditions: both partners purified

Row | Binder | Kd [nM] | koff [s⁻¹] | kon [M⁻¹ s⁻¹]
4 | DARPin D4 (designed binder, N2C DARPin selected by ribosome display; source: E. coli XL1 Blue, purified (HisPur Cobalt Spin Plates)) GSDLGKKLLEAARAGQDDEVRILMANGADVNAFDHNGSTPLHLAAAIGHLEIVEVLLKYGADVNAEDNWGNTPLHQAAWVGHREIVEVLLKYGADVNAQDKFGKTAFDISIDNGNEDLAEILQKLN | 4.4 | 0.00669 | 1.51e+06
5 | DARPin D2 (designed binder, N2C DARPin selected by ribosome display; source: E. coli XL1 Blue, purified (HisPur Cobalt Spin Plates)) GSDLGKKLLEAARAGQDDEVRVLMANGADVNAFDHNGSTPLHLAAAIGHLEIVEVLLKYGADVNAEDNWGNTPLHQAAWVGHREIVEVLLKYGADVNAQDKFGKTAFDISIDNGNEDLAEILQKLN | 5.7 | 0.00783 | 1.37e+06
6 | DARPin D1 (designed binder, N2C DARPin selected by ribosome display; source: E. coli XL1 Blue, purified (HisPur Cobalt Spin Plates)) GSDLGKKLLEAARAGQDDEVRILMTNGADVNAFDHNGSTPLHLAAAIGHLEIVEVLLKYGADVNAEDNWGNTPLHQAAWVGHREIVEVLLKYGVDVNAQDKFGKTAFDISIDNGNEDLAEILQKLN | 7.6 | 0.00932 | 1.23e+06
7 | DARPin D3 (designed binder, N2C DARPin selected by ribosome display; source: E. coli XL1 Blue, purified (HisPur Cobalt Spin Plates)) GSDLGKKLLEAARAGQDDEVRILMANGADVNAFDHSGSTPLHLAAAIGHLEIVEVLLKYGADVNAEDNWGNTPLHQAAWVGHREIVEVLLKYGADVNAQDKFGKTAFDISIDNGNEDLAEILQKLN | – | 0.0109 | 1.35e+06
8 | DARPin D6 (designed binder, N3C DARPin selected by ribosome display; source: E. coli XL1 Blue, purified (HisPur Cobalt Spin Plates)) GSDLGKKLLEAARAGQDDEVRILMANGADVNAQDVSGQTPLHLAAIWGHLEIVEVLLKTGADVNAWDHWGNTPLHLAAWQGHLEIVEVLLKAGTDVNAKDSEGFTPLHLAAWWGHLEIVEVLLKHGADVNAQDKFGKTPFDLAIDNGNEDIAEVLQKAAKLN | – | 0.000623 | 138000

Results, then the binder that gave them:

Row | Kd [nM] | koff [s⁻¹] | kon [M⁻¹ s⁻¹] | Binder
9 | 7.5 | 0.00147 | 196000 | DARPin D7 (designed binder, N3C DARPin selected by ribosome display; source: E. coli XL1 Blue, purified (HisPur Cobalt Spin Plates)) GSDLGKKLLEATRAGQDDEVRILMANGADVNAQDVSGQTPLHLAAIWGHLEIVEVLLKTGADVNAQDWFGETPLHLAAVQGHLEIVEVLLKTGADVNAWDAYGHTPLHLAANYGHLEIVEVLLKHGADVNAQDKFGKTPFDLAIDNGNEDIAEVLQKAAKLN
10 | 6.9 | 0.00856 | 1.25e+06 | DARPin D5 (His6- and FLAG-tagged form used for characterisation) (designed binder, N2C DARPin selected by ribosome display; source: E. coli XL1 Blue, purified (HisPur Cobalt Spin Plates)) GSDLGKKLLEAARAGQDDEVRILMANGADVNAFDHNGSTPLHLAAAIGHLEIVEVLLKYGADVNAEDNWGNTPLHQAAWVGHLEIVEVLLKNGADVNAQDKFGKTAFDISIDNGNEDLAEILQKLN
11 | 5 | 0.000791 | 158000 | DARPin D8 (designed binder, N3C DARPin selected by ribosome display; source: E. coli XL1 Blue, purified (HisPur Cobalt Spin Plates)) GSDLGKKLLEAARAGQDDEVRILMANGADVNAQDVSGQTPLHLAAIWGHLEIVEVLLKTGADVNAWDHWGNTPLHLAAWQGHLEIVEVLLKAGADVNAKDSEGFTPLHLAAWWGHLEIVEVLLKHGADVNAQDKFGKTPFDLAIDNGNEDIAEVLQKAAKLN

Target: T3, HER3 extracellular domain 4 (HER3d4) without AviTag, deglycosylated (Homo sapiens)
T3 construct: PNGase F treatment may have turned glycosylated Asn into Asp (surmise); also called HER3 domain 4; ErbB3 domain 4; source: Sf9 (baculovirus), secreted, purified (IMAC), deglycosylated with PNGase F, ConA Sepharose
T3 chain: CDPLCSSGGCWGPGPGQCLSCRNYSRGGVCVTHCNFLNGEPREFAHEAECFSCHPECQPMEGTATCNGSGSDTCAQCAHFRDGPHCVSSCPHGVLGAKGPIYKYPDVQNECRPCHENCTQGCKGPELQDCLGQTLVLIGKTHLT
Assay: crystal structure; DARPin D5 incubated with HER3d4 at a 1:1.2 molar ratio, complex purified by gel filtration in PBS; sitting drop, 277 K; two crystal forms, P2(1) at 2.3 A and P2(1)2(1)2(1) at 2.0 A
Conditions: both partners purified

Row | Binder | binding result
12 | DARPin D5 (designed ankyrin-repeat protein D5), His6 tag removed by 3C protease (designed binder, N2C DARPin selected by ribosome display; Carries the framework mutation L86Q against the DARPin consensus; source: E. coli XL1 Blue, purified (Ni-NTA, 3C protease cleavage, reverse Ni-NTA); not shown: His6, N-terminal, cleaved) GPGSDLGKKLLEAARAGQDDEVRILMANGADVNAFDHNGSTPLHLAAAIGHLEIVEVLLKYGADVNAEDNWGNTPLHQAAWVGHLEIVEVLLKNGADVNAQDKFGKTAFDISIDNGNEDLAEILQKLN | binds
